The results in this text go back to patent CN110172090A.

Assay [1] has as its target OX40 (Kd检测ELISA法的抗原) (human) (UniProt P43489). Kind of assay: ELISA-based Kd method (ELASA法).
Assay [2] deals with 人OX40 (膜表面过表达人OX40的293T细胞系) (human) (UniProt P43489). Kind of assay: flow cytometry on 293T cells overexpressing human OX40.
Assay [3] has the same target. Kind of assay: flow cytometry on 293T cells overexpressing human OX40, PE goat anti-mouse secondary.

In turn, “CD40 Monoclonal Antibody (HB14), PE, Catalog#CD4004, Invitrogen” registered a dissociation constant (Kd) in assay [1] of 9.8 nM. In addition, the EC50 in assay [2] worked out at 2.5 nM.

B1: 抗人OX40单克隆抗体 (杂交瘤OX401M) (antibody, part only; not given: constant regions, V domains shown, part only)
VH: QVQLAQPGAELVRPGASVKQYCKASGYSGSSYTIHWVKQTPSRGLEWIGAIYPGNGDTSWNQKFKGKATITADKSSSTAYMRLSSLTSEDSAISYCARSTYYYGAYYFDYWGQGSTL
In turn, B1 registered a Kd in assay [1] of 0.0273 nM. The same molecule returned an EC50 in assay [3] of 0.0125 nM.
